The text below walks through data of paper PMC12170172, “Initiation of ERAD by the bifunctional complex of Mnl1/Htm1 mannosidase and protein disulfide isomerase” (Nature Structural & Molecular Biology, 2025).

The target in this experiment is T1, Mnl1 (C644S)–FLAG (S. cerevisiae, UniProt P38888 21-796, C644S).
T1 construct: Mnl1 (Htm1) of S. cerevisiae with a substituted loop cysteine; source: S. cerevisiae, overexpressed together with Pdi1, purified as a complex (anti-FLAG M2 resin, Superdex 200); not shown: FLAG, C-terminal, kept
T1 sequence (looked up): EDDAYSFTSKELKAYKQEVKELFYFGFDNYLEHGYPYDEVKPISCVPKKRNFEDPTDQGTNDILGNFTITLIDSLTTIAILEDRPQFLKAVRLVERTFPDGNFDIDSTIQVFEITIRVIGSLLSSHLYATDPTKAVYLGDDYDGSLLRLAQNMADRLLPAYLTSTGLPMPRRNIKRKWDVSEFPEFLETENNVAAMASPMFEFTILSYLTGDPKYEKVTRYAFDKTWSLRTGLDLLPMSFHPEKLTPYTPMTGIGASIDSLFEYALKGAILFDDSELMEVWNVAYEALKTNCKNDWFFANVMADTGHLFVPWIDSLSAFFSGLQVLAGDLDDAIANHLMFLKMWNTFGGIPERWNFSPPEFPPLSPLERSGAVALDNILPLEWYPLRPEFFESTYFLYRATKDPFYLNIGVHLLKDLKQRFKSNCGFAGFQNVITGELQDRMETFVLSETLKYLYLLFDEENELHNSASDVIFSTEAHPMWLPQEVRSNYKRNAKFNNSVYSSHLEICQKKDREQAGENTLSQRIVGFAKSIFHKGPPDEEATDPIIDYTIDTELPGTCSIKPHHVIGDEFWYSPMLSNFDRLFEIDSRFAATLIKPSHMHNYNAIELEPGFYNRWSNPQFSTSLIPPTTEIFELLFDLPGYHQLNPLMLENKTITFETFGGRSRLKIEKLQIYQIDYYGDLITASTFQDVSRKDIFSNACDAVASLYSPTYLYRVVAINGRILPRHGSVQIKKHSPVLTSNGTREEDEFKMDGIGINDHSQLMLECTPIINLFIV
As to the kind of experiment: cross-linking; purified complexes of Pdi1 with wild-type or mutant Mnl1 incubated with increasing concentrations of DPS (2,2′-dipyridyldisulfide) to induce disulfides; non-reducing SDS-PAGE, Coomassie blue. The conditions noted are these: both partners purified.

B1: Pdi1 (protein disulfide isomerase) (enzyme, S. cerevisiae, UniProt P17967 29-522, looked up)
chain: PEDSAVVKLATDSFNEYIQSHDLVLAEFFAPWCGHCKNMAPEYVKAAETLVEKNITLAQIDCTENQDLCMEHNIPGFPSLKIFKNSDVNNSIDYEGPRTAEAIVQFMIKQSQPAVAVVADLPAYLANETFVTPVIVQSGKIDADFNATFYSMANKHFNDYDFVSAENADDDFKLSIYLPSAMDEPVVYNGKKADIADADVFEKWLQVEALPYFGEIDGSVFAQYVESGLPLGYLFYNDEEELEEYKPLFTELAKKNRGLMNFVSIDARKFGRHAGNLNMKEQFPLFAIHDMTEDLKYGLPQLSEEAFDELSDKIVLESKAIESLVKDFLKGDASPIVKSQEIFENQDSSVFQLVGKNHDEIVNDPKKDVLVLYYAPWCGHCKRLAPTYQELADTYANATSDVLIAKLDHTENDVRGVVIEGYPTIVLYPGGKKSESVVYQGSRSLDSLFDFIKENGHFDVDGKALYEEAQEKAAEEADADAELADEEDAIHDEL
notes: Pdi1, protein disulfide isomerase of S. cerevisiae, untagged; Trx domains a, b, b′ and a′; amino acids 24–500 could be modelled; source: S. cerevisiae, overexpressed together with Mnl1–FLAG (GAL1 promoter), purified as a complex
For B1, the binding result is listed as “binds”.
